In patent US20110008302:

T1: H3K36(me2) peptide ATGGV-K(me2)-KPHRY
T1 chain: ATGGVKKPHRY

T2: H3K4(me3) peptide ART-K(me3)-QTARKST
T2 chain: ARTKQTARKST


Key:
[1] = molecular target: T1, H3K36(me2) peptide ATGGV-K(me2)-KPHRY
[2] = molecular target: T2, H3K4(me3) peptide ART-K(me3)-QTARKST

Protein | fluorescence coupled demethylation assay [1] | specific activity (ratio H3K36me2 versus H3K4me3 peptide) [1] | fluorescence coupled demethylation assay [2]
bacterially expressed mouse Ndy1 fragment containing the JmjC, CXXC and PHD domains (aa 171-707) (protein) MWPQHLKEKQTEATNALAEMKYPKVKKYCLMSVKGCFTDFHIDFGGTSVWYHVFRGGKIFWLIPPTLHNLALYEEWVLSGKQSDIFLGDRVERCQRIELKQGYTFFIPSGWIHAVYTPVDSLVFGGNILHSFNVPMQLRIYEIEDRTRVQPKFRYPFYYEMCWYVLERYVYCVTQRSYLTQEYQRELMLIDAPRKTSVDGFSSDSWLDMEEESCEQQPQEEEEEEEDKEEEGDGADKTPKPPTDDPTSPTSTPPEDQDSTGKKPKAPAIRFLKRTLSNESEESVKSTSMPTDDPKTPTGSPATEVSTKWTHLTEFELKGLKALVEKLESLPENKKCVPEGIEDPQALLEGVKNVLKEHVDDDPTLAITGVPVVSWPKKTAKNRVVGRPKGKLGPASAVKLAANRTTAGARRRRTRCRKCEACLRTECGECHFCKDMKKFGGPGRMKQSCIMRQCIAPVLPHTAVCLVCGEAGKEDTVEEEEGKFNLMLMECSICNEIIHPGCLKIKESEGVVNDELPNCWECPKCNHAGKTGKQKRG | shown to demethylate both H3K36me2 and H3K4me3 peptides, with high and low efficiencies respectively | about three times higher specific activity towards the H3K36me2 versus the H3K4me3 peptide | shown to demethylate both H3K36me2 and H3K4me3 peptides, with high and low efficiencies respectively
171-707 Ndy1 fragment containing the Y221A mutation (protein) MWPQHLKEKQTEATNALAEMKYPKVKKYCLMSVKGCFTDFHIDFGGTSVWAHVFRGGKIFWLIPPTLHNLALYEEWVLSGKQSDIFLGDRVERCQRIELKQGYTFFIPSGWIHAVYTPVDSLVFGGNILHSFNVPMQLRIYEIEDRTRVQPKFRYPFYYEMCWYVLERYVYCVTQRSYLTQEYQRELMLIDAPRKTSVDGFSSDSWLDMEEESCEQQPQEEEEEEEDKEEEGDGADKTPKPPTDDPTSPTSTPPEDQDSTGKKPKAPAIRFLKRTLSNESEESVKSTSMPTDDPKTPTGSPATEVSTKWTHLTEFELKGLKALVEKLESLPENKKCVPEGIEDPQALLEGVKNVLKEHVDDDPTLAITGVPVVSWPKKTAKNRVVGRPKGKLGPASAVKLAANRTTAGARRRRTRCRKCEACLRTECGECHFCKDMKKFGGPGRMKQSCIMRQCIAPVLPHTAVCLVCGEAGKEDTVEEEEGKFNLMLMECSICNEIIHPGCLKIKESEGVVNDELPNCWECPKCNHAGKTGKQKRG | failed to demethylate either of the peptide substrates |  | failed to demethylate either of the peptide substrates
